For orientation: Kd means the concentration at which binding is half-saturated.

The values that follow come from paper PMC4822050, “Hemi-methylated DNA opens a closed conformation of UHRF1 to facilitate its histone recognition” (Nature Communications, 2016).

One assay concerns FAM-12bp-HM-DNA. The experiment in a line: Fluorescence polarization, 12-bp FAM-hm-DNA. The class given is binding. Particulars: for Kd: FP. The method, then: A 6-carboxy-fluorescein (FAM)-labelled primer, 5′-CCATGCGCTGAC-3′, was annealed to a primer 5′-GTCAGXGCATGG-3′ (X=5-methyldeoxycytosine). The hemi-methylated double-strand DNA was used in both electrophoretic mobility-shift assay and FP assays. […] The samples were subjected to a 10% polyacrylamide gel electrophoresis and run in 0.5 × Tris-borate-EDTA buffer at 100 V for 1 h at 4 °C. The results were visualized on Tanon-5200 Chemiluminescent Imaging System (Tanon Science & Technology Co., Ltd).
(§1) FP measurements were performed at 25 °C on Synergy 4 Microplate Reader (BioTek). The 16-bp and 20-bp FAM-labelled hm-DNA (lower strand: 5′-GTGTCAGXGCATGGCC-3′ and 5′-CCGTGTCAGXGCATGGCCAT-3′, respectively. X=5-methyldeoxycytosine) were used in the FP experiment to test the effect of DNA length on the protein/DNA interaction. All experiments were performed in triplicate. The curves were fitted by GraphPad Prism 5. For salt concentration-dependent FP experiments, the reaction buffer contains 50 mM or 150 mM NaCl, respectively.

In the next assay the test system is H3K9me3 peptide (1–17). In words: ITC, H3K9me3 peptide (1-17) titrated into UHRF1 proteins. The class given is binding. As to conditions: ITC KD ratio. The protocol: (§2) For competition ITC experiments: the indicated proteins were pre-incubated with competitive peptide, protein or hm-DNA (at 1:2 molar ratio if not specified) for 10 min followed by ITC measurements as described above. Proteins, DNA and peptides were prepared within ITC buffer containing 10 mM HEPES, pH 8.0, 100 mM NaCl. The data were fitted by software Origin 7.0. All ITC results were summarized in Supplementary Table 2 and raw data were shown in Supplementary Fig. 9.
On the technique in general: Isothermal titration calorimetry measures the heat released or taken up as one component is titrated into another.

Assay [1] has as its system DAPI foci (pericentromeric heterochromatin) in NIH3T3 cells. The experiment in a line: Subcellular localization of GFP-tagged UHRF1 in NIH3T3 cells. Particulars: GFP-tagged protein transiently overexpressed in NIH3T3 cells, 36 h after transfection; at least 100 cells counted; repeated three times. The class given is cell-based. The method, then: NIH3T3 cells were obtained from the Shanghai Institute of Biochemistry and Cell Biology. Wild type and mutants of UHRF1 were sub-cloned into pEGFP-C1 vector. Transient transfections of NIH3T3 cells were carried out using Lipofectamine 2000 (Invitrogen). The NIH3T3 cells were grown on glass coverslips and harvested in 36 h after transfection. The images were acquired and examined as previously described. Briefly, cells were fixed with 4% paraformaldehyde for 25 min, then washed with PBS three times. Coverslips were mounted with Antifade reagent containing DAPI (Molecular Probes) on slides and examined with a confocal microscopy.

In a further assay the target is FAM-20bp-HM-DNA. The experiment in a line: Fluorescence polarization, 20-bp FAM-hm-DNA. The format is binding. As to conditions: FP, DNA length series. The method, then:
as §1
(Polarisation of emitted light reports the rotation of a fluorescent probe.)

A further assay deals with RFTS^DNMT1. In words: ITC, RFTS of DNMT1 with SRA or SRA-Spacer. The format is binding. As to conditions: 18 °C, RFTS^DNMT1 with named protein, 10 mM HEPES pH 8.0, 100 mM NaCl. The method, then:
as §2

The next assay concerns the target FAM-16bp-HM-DNA. In words: Fluorescence polarization, 16-bp FAM-hm-DNA. The format is binding. Particulars: FP, DNA length series. The protocol: as §1
The target of assay [2] is T1, TTD (residues 134–285) of UHRF1 (Homo sapiens, UniProt Q96T88).
T1 construct: TTD (residues 134–285); GST (N, cleaved yes); made in house; host or cells: E. coli BL21 (DE3)
T1 sequence (Q96T88 134-285): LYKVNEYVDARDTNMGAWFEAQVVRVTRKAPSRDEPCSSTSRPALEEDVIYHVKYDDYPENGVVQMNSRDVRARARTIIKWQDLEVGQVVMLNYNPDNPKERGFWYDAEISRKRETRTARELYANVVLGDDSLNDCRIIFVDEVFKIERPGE
The experiment in a line: ITC, TTD titrated into Spacer variants and other UHRF1 fragments. The class given is binding. As to conditions: TTD in syringe. The protocol: as §2

The target of a further assay is hm-DNA (12 bp). The experiment in a line: ITC, hm-DNA titrated into UHRF1 domains. The class given is binding. Particulars: 18 °C, 12-bp hm-DNA in syringe, named protein in cell, 10 mM HEPES pH 8.0, 100 mM NaCl. The method, then:
as §2

The mark [3] stands for this setting: 25 °C, 20 min, 20 mM HEPES pH 7.5, 175 mM NaCl, 8% glycerol, 1 mM DTT, triplicate, Fig. 5b and Supplementary Table 4.

B1: UHRF1∆627-674: spacer deletion mutant of UHRF1 (residues 627–674 deleted) (protein)
chain: MWIQVRTMDGRQTHTVDSLSRLTKVEELRRKIQELFHVEPGLQRLFYRGKQMEDGHTLFDYEVRLNDTIQLLVRQSLVLPHSTKERDSELSDTDSGCCLGQSESDKSSTHGEAAAETDSRPADEDMWDETELGLYKVNEYVDARDTNMGAWFEAQVVRVTRKAPSRDEPCSSTSRPALEEDVIYHVKYDDYPENGVVQMNSRDVRARARTIIKWQDLEVGQVVMLNYNPDNPKERGFWYDAEISRKRETRTARELYANVVLGDDSLNDCRIIFVDEVFKIERPGEGSPMVDNPMRRKSGPSCKHCKDDVNRLCRVCACHLCGGRQDPDKQLMCDECDMAFHIYCLDPPLSSVPSEDEWYCPECRNDASEVVLAGERLRESKKKAKMASATSSSQRDWGKGMACVGRTKECTIVPSNHYGPIPGIPVGTMWRFRVQVSESGVHRPHVAGIHGRSNDGAYSLVLAGGYEDDVDHGNFFTYTGSGGRDLSGNKRTAEQSCDQKLTNTNRALALNCFAPINDQEGAEAKDWRSGKPVRVVRNVKGGKNSKYAPAEGNRYDGIYKVVKYWPEKGKSGFLVWRYLLRRDDDEPGPWTKEGKDRIKKLGLTMQYPEGYLEALANREREKENSKSLTAQQSSLIREDKSNAKLWNEVLASLKDRPASGSPFQLFLSKVEETFQCICCQELVFRPITTVCQHNVCKDCLDRSFRAQVFSCPACRYDLGRSYAMQVNQPLQTVLNQLFPGYGNGR
modifications: left off: GST, end not stated, cleaved
Consider B1, for which the “factor of decrease in hm-DNA-binding affinity compared with full-length UHRF1” value with FAM-12bp-HM-DNA (FP KD ratio) came out at 14. Besides, the equilibrium dissociation constant (Kd) at FAM-12bp-HM-DNA (setting [3]) was found to be 4940 ± 1090 nM. In addition, in the assay on H3K9me3 peptide (1–17), the “fold higher binding affinity to H3K9me3 peptide than full-length UHRF1” value is listed as “four”. In addition, in assay [1], the “percentage of cells showing co-localization with DAPI foci” value was 22.1%.

B2: SRA–Spacer: human UHRF1 residues 414–674 (protein)
chain: PSNHYGPIPGIPVGTMWRFRVQVSESGVHRPHVAGIHGRSNDGAYSLVLAGGYEDDVDHGNFFTYTGSGGRDLSGNKRTAEQSCDQKLTNTNRALALNCFAPINDQEGAEAKDWRSGKPVRVVRNVKGGKNSKYAPAEGNRYDGIYKVVKYWPEKGKSGFLVWRYLLRRDDDEPGPWTKEGKDRIKKLGLTMQYPEGYLEALANREREKENSKREEEEQQEGGFASPRTGKGKWKRKSAGGGPSRAGSPRRTSKKTKVEPY
modifications: left off: GST, end not stated, cleaved
As to B2, the equilibrium dissociation constant (Kd) was determined as 400 ± 70 nM at FAM-20bp-HM-DNA; 24 ± 3.7 nM at FAM-12bp-HM-DNA (12-bp hm-DNA, 50 mM NaCl); 580 ± 98 nM at FAM-12bp-HM-DNA (12-bp hm-DNA, 150 mM NaCl); 490 nM on FAM-12bp-HM-DNA (setting [3]); 340 ± 90 nM at FAM-12bp-HM-DNA (DNA length series, Supplementary Table 5, 12-bp hm-DNA); 490 nM at FAM-12bp-HM-DNA (values as printed in Fig. 5c (Spacer truncation mapping)). The Kd at RFTS^DNMT1 was 7090 nM; on FAM-16bp-HM-DNA, 390 ± 70 nM; at hm-DNA (12 bp) it was 1750 nM. Further, the N in assay [2] (ITC stoichiometry) is listed as 0.788±0.0108. Moreover, the ΔH in assay [2] (ITC) was -1.199E4±224.9 cal/mol. Moreover, the ΔS in assay [2] (ITC) was -13.3 cal/mol/deg.
